From patent US20210403591A1 (OSSIANIX, published 2021)

Experiments:
[1] = target: T1, WT mTfR-1 expressed on Expi293 cells (mouse, UniProt Q62351 1-763); test: FACS, transfected Expi293 cells
T1 construct: whole, on cells
Experimental: (§1) Transfected Expi293 cells were harvested and 2×10⁵ cells were transferred into V-bottom 96-well plate for staining. The cells were blocked in PBS containing 1% BSA (FACS buffer) for 10 min on ice, centrifuged to remove the buffer and 1 μl of 8D3-hFc formatted antibody, Clone C-hFc or Clone C variants 18 and 13 (Table 1), all at 1 mg/ml, was added to the wells. The cells were co-stained with mouse Tf-Alexa647 (Jackson ImmunoResearch). After 30 minutes on ice, the cells were washed and incubated with anti-hFc-PE (eBioscience) for 20 minutes on ice, washed again and resuspended in […] of FACS buffer containing 5 μl of propidium iodide (PI) to exclude dead cells from the analysis. The percentage of double-positive cells that stained with mTf and the tested antibody was determined on a CytoFlex cytometer (Beckman Coulter). The percentage of cells in the double positive quadrant (Q2) for WT mTfR-1 was used for normalization.

[2] = target: T2, mTfR-1 K195A on Expi293 cells (mouse, UniProt Q62351 1-763); test: FACS, transfected Expi293 cells
T2 construct: whole, on cells
Experimental: as §1

[3] = target: T3, mTfR-1 I198A on Expi293 cells (mouse, UniProt Q62351 1-763); test: FACS, transfected Expi293 cells
T3 construct: whole, on cells
Experimental: as §1

[4] = target: T4, mTfR-1 M202A on Expi293 cells (mouse, UniProt Q62351 1-763); test: FACS, transfected Expi293 cells
T4 construct: whole, on cells
Experimental: as §1

[5] = target: T5, mTfR-1 S225A on Expi293 cells (mouse, UniProt Q62351 1-763); test: FACS, transfected Expi293 cells
T5 construct: whole, on cells
Experimental: as §1

[6] = target: T6, mTfR-1 K226A on Expi293 cells (mouse, UniProt Q62351 1-763); test: FACS, transfected Expi293 cells
T6 construct: whole, on cells
Experimental: as §1

[7] = target: T7, mTfR-1 P227A on Expi293 cells (mouse, UniProt Q62351 1-763); test: FACS, transfected Expi293 cells
T7 construct: whole, on cells
Experimental: as §1

[8] = target: T8, mTfR-1 Q274A on Expi293 cells (mouse, UniProt Q62351 1-763); test: FACS, transfected Expi293 cells
T8 construct: whole, on cells
Experimental: as §1

[9] = target: T9, mTfR-1 S275A on Expi293 cells (mouse, UniProt Q62351 1-763); test: FACS, transfected Expi293 cells
T9 construct: whole, on cells
Experimental: as §1

[10] = target: T10, mTfR-1 P324A on Expi293 cells (mouse, UniProt Q62351 1-763); test: FACS, transfected Expi293 cells
T10 construct: whole, on cells
Experimental: as §1

[11] = target: T11, mTfR-1 Q327A on Expi293 cells (mouse, UniProt Q62351 1-763); test: FACS, transfected Expi293 cells
T11 construct: whole, on cells
Experimental: as §1

[12] = target: T12, mTfR-1 S329A on Expi293 cells (mouse, UniProt Q62351 1-763); test: FACS, transfected Expi293 cells
T12 construct: whole, on cells
Experimental: as §1

[13] = target: T13, mTfR-1 I192A on Expi293 cells (mouse, UniProt Q62351 1-763); test: FACS, transfected Expi293 cells; mutant poorly expressed
T13 construct: whole, on cells; also called 1192A
Experimental: as §1

[14] = target: T14, mTfR-1 N201A on Expi293 cells (mouse, UniProt Q62351 1-763); test: as above
T14 construct: whole, on cells
Experimental: as §1

[15] = target: T15, mTfR-1 F224A on Expi293 cells (mouse, UniProt Q62351 1-763); test: as above
T15 construct: whole, on cells
Experimental: as §1

[16] = target: T16, mTfR-1 L256A on Expi293 cells (mouse, UniProt Q62351 1-763); test: as above
T16 construct: whole, on cells
Experimental: as §1

[17] = target: T17, mTfR-1 A278T on Expi293 cells (mouse, UniProt Q62351 1-763); test: as above
T17 construct: whole, on cells
Experimental: as §1

[18] = target: T18, mTfR-1 L331A on Expi293 cells (mouse, UniProt Q62351 1-763); test: as above
T18 construct: whole, on cells
Experimental: as §1

[19] = target: T19, mTfR-1 I334A on Expi293 cells (mouse, UniProt Q62351 1-763); test: as above
T19 construct: whole, on cells
Experimental: as §1

[20] = target: T20, mTfR-1 V379A on Expi293 cells (mouse, UniProt Q62351 1-763); test: as above
T20 construct: whole, on cells
Experimental: as §1

[21] = target: T21, mTfR-1 N381A on Expi293 cells (mouse, UniProt Q62351 1-763); test: as above
T21 construct: whole, on cells
Experimental: as §1

[22] = target: T22, recombinant human TfR-1, His-tagged (Sino Biological 11020-H07H) (human, UniProt P02786 89-760); test: SPR, His-captured TfR1
T22 construct: bought; His-tagged; also called hTfR1; hTfR-1
Experimental: (§2) Detailed binding kinetic analyses were performed to gain a better understanding of the relationship between affinity and brain penetration of the Clone C variants. Biacore surface plasmon resonance (SPR) analysis using immobilised mouse and human TfR-1 was performed for selected clones (Table 2).
(§3) Binding kinetics of VNAR-Fcs was determined by surface plasmon resonance (Biacore T200, GE Healthcare). CMS chips were coated with anti-His antibodies (His Capture Kit, GE Healthcare) as recommended by the manufacturer and human or mouse his-tagged TfR1 (SinoBiological) at 10 ug/mL in HBS-EP+ (GE Healthcare) was captured at flow rate 10 ul/min (contact time 120 s). […] A flow cell without TfR1 captured served as a reference. Sensorgrams were fitted and kinetic constants were determined using Biacore T200 Evaluation software. Chips were regenerated in 10 mM Glycine-HCl, pH 1.5 (contact time: 120 s at flow rate 30 ul/min).

[23] = target: T23, recombinant mouse TfR-1, His-tagged (Sino Biological 50741-M07H) (mouse, UniProt Q62351 89-763); test: SPR, His-captured TfR1
T23 construct: bought; His-tagged; also called mTfR1; mTfR-1
Experimental: as §2, §3

T17 sequence (Q62351 whole entry A278T): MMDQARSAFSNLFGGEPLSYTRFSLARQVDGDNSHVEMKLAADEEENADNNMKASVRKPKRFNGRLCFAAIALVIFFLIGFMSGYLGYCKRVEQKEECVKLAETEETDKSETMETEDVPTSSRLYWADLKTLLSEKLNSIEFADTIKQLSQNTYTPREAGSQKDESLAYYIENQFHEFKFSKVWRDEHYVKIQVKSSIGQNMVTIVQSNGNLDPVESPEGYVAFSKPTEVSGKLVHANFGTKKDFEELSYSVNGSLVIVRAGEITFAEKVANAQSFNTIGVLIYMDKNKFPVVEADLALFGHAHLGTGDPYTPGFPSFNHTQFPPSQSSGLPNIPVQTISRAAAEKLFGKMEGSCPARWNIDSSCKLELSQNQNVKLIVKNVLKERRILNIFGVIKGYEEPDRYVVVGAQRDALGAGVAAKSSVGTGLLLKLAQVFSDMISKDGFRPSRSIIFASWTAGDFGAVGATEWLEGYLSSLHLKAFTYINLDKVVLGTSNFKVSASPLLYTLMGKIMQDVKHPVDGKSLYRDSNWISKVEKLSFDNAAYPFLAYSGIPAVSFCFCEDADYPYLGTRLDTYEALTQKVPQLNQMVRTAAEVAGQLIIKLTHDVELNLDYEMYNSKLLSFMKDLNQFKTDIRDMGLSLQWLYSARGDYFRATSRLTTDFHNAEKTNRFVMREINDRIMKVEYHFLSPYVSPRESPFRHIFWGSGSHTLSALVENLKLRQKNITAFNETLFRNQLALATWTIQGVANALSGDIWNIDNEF
T19 sequence (Q62351 whole entry I334A): as the sequence (Q62351 whole entry A278T) above, with T278A, I334A counted along it
T7 sequence (Q62351 whole entry P227A): as the sequence (Q62351 whole entry A278T) above, with P227A, T278A counted along it
T14 sequence (Q62351 whole entry N201A): as the sequence (Q62351 whole entry A278T) above, with N201A, T278A counted along it
T9 sequence (Q62351 whole entry S275A): as the sequence (Q62351 whole entry A278T) above, with S275A, T278A counted along it
T21 sequence (Q62351 whole entry N381A): as the sequence (Q62351 whole entry A278T) above, with T278A, N381A counted along it
T16 sequence (Q62351 whole entry L256A): as the sequence (Q62351 whole entry A278T) above, with L256A, T278A counted along it
T11 sequence (Q62351 whole entry Q327A): as the sequence (Q62351 whole entry A278T) above, with T278A, Q327A counted along it
T8 sequence (Q62351 whole entry Q274A): as the sequence (Q62351 whole entry A278T) above, with Q274A, T278A counted along it
T12 sequence (Q62351 whole entry S329A): as the sequence (Q62351 whole entry A278T) above, with T278A, S329A counted along it
T1 sequence (Q62351 whole entry): as the sequence (Q62351 whole entry A278T) above, with T278A counted along it
T15 sequence (Q62351 whole entry F224A): as the sequence (Q62351 whole entry A278T) above, with F224A, T278A counted along it
T20 sequence (Q62351 whole entry V379A): as the sequence (Q62351 whole entry A278T) above, with T278A, V379A counted along it
T23 sequence (Q62351 89-763 limits assumed, stated change not applied): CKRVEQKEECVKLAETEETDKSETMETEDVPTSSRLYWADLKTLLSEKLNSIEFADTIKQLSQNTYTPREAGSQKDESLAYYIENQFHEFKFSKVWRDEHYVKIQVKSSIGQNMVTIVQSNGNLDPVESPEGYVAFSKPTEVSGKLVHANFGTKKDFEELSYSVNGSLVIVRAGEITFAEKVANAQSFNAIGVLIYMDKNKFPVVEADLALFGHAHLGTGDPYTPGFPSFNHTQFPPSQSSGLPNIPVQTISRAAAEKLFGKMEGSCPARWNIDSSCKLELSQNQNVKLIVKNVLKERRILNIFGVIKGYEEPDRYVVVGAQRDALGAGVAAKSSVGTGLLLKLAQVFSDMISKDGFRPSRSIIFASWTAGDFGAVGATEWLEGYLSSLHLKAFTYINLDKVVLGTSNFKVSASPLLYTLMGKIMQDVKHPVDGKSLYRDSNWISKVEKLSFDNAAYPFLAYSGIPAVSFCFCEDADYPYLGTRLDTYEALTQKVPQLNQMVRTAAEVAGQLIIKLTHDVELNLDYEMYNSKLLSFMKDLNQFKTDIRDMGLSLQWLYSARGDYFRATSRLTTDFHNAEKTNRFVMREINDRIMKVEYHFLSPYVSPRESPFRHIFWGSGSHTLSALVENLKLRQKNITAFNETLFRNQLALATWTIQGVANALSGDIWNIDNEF
T2 sequence (Q62351 whole entry K195A): as the sequence (Q62351 whole entry A278T) above, with K195A, T278A counted along it
T22 sequence (P02786 89-760 limits assumed): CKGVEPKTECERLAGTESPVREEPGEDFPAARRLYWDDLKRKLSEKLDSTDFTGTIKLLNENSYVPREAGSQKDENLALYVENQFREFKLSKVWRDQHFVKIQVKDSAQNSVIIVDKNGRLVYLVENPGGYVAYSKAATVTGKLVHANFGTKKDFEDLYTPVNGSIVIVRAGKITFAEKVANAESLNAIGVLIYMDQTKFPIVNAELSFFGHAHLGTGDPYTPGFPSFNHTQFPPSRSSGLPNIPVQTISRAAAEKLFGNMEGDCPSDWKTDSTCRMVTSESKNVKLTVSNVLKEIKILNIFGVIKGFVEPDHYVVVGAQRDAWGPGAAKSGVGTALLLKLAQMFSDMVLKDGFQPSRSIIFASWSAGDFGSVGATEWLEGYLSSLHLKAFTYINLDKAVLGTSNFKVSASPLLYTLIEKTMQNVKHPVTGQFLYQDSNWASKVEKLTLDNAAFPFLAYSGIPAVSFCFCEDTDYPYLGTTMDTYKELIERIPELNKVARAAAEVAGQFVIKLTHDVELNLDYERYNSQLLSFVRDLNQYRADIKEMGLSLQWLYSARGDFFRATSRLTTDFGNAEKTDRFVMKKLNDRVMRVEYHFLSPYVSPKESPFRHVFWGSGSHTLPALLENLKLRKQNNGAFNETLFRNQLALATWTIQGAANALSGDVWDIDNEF
T5 sequence (Q62351 whole entry S225A): as the sequence (Q62351 whole entry A278T) above, with S225A, T278A counted along it
T10 sequence (Q62351 whole entry P324A): as the sequence (Q62351 whole entry A278T) above, with T278A, P324A counted along it
T4 sequence (Q62351 whole entry M202A): as the sequence (Q62351 whole entry A278T) above, with M202A, T278A counted along it
T18 sequence (Q62351 whole entry L331A): as the sequence (Q62351 whole entry A278T) above, with T278A, L331A counted along it
T13 sequence (Q62351 whole entry I192A): as the sequence (Q62351 whole entry A278T) above, with I192A, T278A counted along it
T6 sequence (Q62351 whole entry K226A): as the sequence (Q62351 whole entry A278T) above, with K226A, T278A counted along it
T3 sequence (Q62351 whole entry I198A): as the sequence (Q62351 whole entry A278T) above, with I198A, T278A counted along it

| Binder | % double-positive cells vs WT [1] [%] | % double-positive cells vs WT [2] [%] | % double-positive cells vs WT [3] [%] | % double-positive cells vs WT [4] [%] | % double-positive cells vs WT [5] [%] | % double-positive cells vs WT [6] [%] | % double-positive cells vs WT [7] [%] | % double-positive cells vs WT [8] [%] | % double-positive cells vs WT [9] [%] | % double-positive cells vs WT [10] [%] | % double-positive cells vs WT [11] [%] | % double-positive cells vs WT [12] [%] | % double-positive cells vs WT [13] [%] | % double-positive cells vs WT [14] [%] | % double-positive cells vs WT [15] [%] | % double-positive cells vs WT [17] [%] | % double-positive cells vs WT [18] [%] | % double-positive cells vs WT [19] [%] | % double-positive cells vs WT [20] [%] | % double-positive cells vs WT [21] [%] | further results |
| --- | --- | --- | --- | --- | --- | --- | --- | --- | --- | --- | --- | --- | --- | --- | --- | --- | --- | --- | --- | --- | --- |
| 8D3 antibody (anti-mouse TfR-1 control; 8D3-hFc formatted antibody) (antibody, V domains shown) VH: EVQLVESGGGLVQPGNSLTLSCVASGFTFSNYGMHWIRQAPKKGLEWIAMIYYDSSKMNYADTVKGRFTISRDNSKNTLYLEMNSLRSEDTAMYYCAVPTSHYVVDVWGQGVSVTVSS VL: DIQMTQSPASLSASLEEIVTITCQASQDIGNWLAWYQQKPGKSPQLLIYGATSLADGVPSRFSGSRSGTQFSLKISRVQVEDIGIYYCLQAYNTPWTFGGGTKLELK | 100 | 63 | 94 | 81 | 64 | 111 | 63 | 87 | 70 | 39 | 124 | 18 | 13 | 1 | 0 | 45 | 0 | 0 | 0 | 26 | % double-positive cells vs WT [16]: 13% |
| Clone C VNAR-hFc fusion (Fc fusion, not shown: a dimerising Fc or GST, bivalent VNAR-Fc; also called Clone C-hFc) ARVDQTPQTITKETGESLTINCVLRDSNCALSSTYWYRKKSGSTNEENISKGGRYVETVNSGSKSFSLRINDLTVEDSGTYRCNVVQYPSYNNYFWCDVYGDGTAVTVN | 100 | 236 | 239 | 166 | 180 | 157 | 77 | 182 | 97 | 27 | 83 | 212 | 61 | 0 | 0 | 25 | 0 | 0 | 0 | 32 | Kd [22]: 0.604 nM; koff [22]: 0.000145 s⁻¹; kon [22]: 240000 M⁻¹ s⁻¹; Kd [23]: 0.892 nM; koff [23]: 0.000191 s⁻¹; kon [23]: 214000 M⁻¹ s⁻¹ |

More lines, main results first:

| % double-positive cells vs WT [1] [%] | % double-positive cells vs WT [2] [%] | % double-positive cells vs WT [3] [%] | % double-positive cells vs WT [4] [%] | % double-positive cells vs WT [5] [%] | % double-positive cells vs WT [6] [%] | % double-positive cells vs WT [7] [%] | % double-positive cells vs WT [8] [%] | % double-positive cells vs WT [9] [%] | % double-positive cells vs WT [10] [%] | % double-positive cells vs WT [11] [%] | % double-positive cells vs WT [12] [%] | % double-positive cells vs WT [13] [%] | % double-positive cells vs WT [14] [%] | % double-positive cells vs WT [15] [%] | % double-positive cells vs WT [17] [%] | % double-positive cells vs WT [18] [%] | % double-positive cells vs WT [19] [%] | % double-positive cells vs WT [20] [%] | % double-positive cells vs WT [21] [%] | Binder | further results |
| --- | --- | --- | --- | --- | --- | --- | --- | --- | --- | --- | --- | --- | --- | --- | --- | --- | --- | --- | --- | --- | --- |
| 100 | 150 | 79 | 153 | 163 | 91 | 20 | 229 | 136 | 39 | 119 | 182 | 18 | 0 | 0 | 21 | 0 | 0 | 0 | 0 | Clone C variant 18 VNAR-hFc (Fc fusion, not shown: a dimerising Fc or GST, also called Clone C v18; Clone C var; 18) ARVDQTPQTITKETGESLTINCVLRDSNCALSSTYWYRKKSGSTNEENISKGGRYVETVNSGSKSFSLRINDLTVEDSGTYRCNVVQYPQYPNYFWCDVYGDGTAVTVN | Kd [22]: 0.314 nM; koff [22]: 0.000113 s⁻¹; kon [22]: 360000 M⁻¹ s⁻¹; Kd [23]: 0.863 nM; koff [23]: 0.000269 s⁻¹; kon [23]: 312000 M⁻¹ s⁻¹; % double-positive cells vs WT [16]: 0% |
| 100 |  | 73 | 103 | 73 | 77 | 47 | 84 | 54 | 25 | 85 | 73 |  | 0 | 0 | 12 | 0 | 0 | 0 | 11 | Clone C variant 13 VNAR-hFc (Fc fusion, not shown: a dimerising Fc or GST, also called Clone C v13; Clone C var; 13) ARVDQTPQTITKETGESLTINCVLRDSNCALSSTYWYRKKSGSTNEENISKGGRYVETVNSGSKSFSLRINDLTVEDSGTYRCNVVQYPQQDNYFWCDVYGDGTAVTVN | Kd [22]: 0.574 nM; koff [22]: 0.00017 s⁻¹; kon [22]: 297000 M⁻¹ s⁻¹; Kd [23]: 0.165 nM; koff [23]: 4.09e-05 s⁻¹; kon [23]: 248000 M⁻¹ s⁻¹; % double-positive cells vs WT [16]: 0% |
